From patent US20160145328A1 (published 2016)
Like-named read-outs stand apart in the source and are kept apart here.

What was measured:
[1] = molecular target: T1, protein A (UniProt P38507 37-477); test: Heat/Cool phage ELISA on protein A; signal after 80 C 10 min / 4 C 10 min as % of untreated sample
T1 construct: also called Protein A superantigen
Description: (§1) The aggregation-resistance of clones was analyzed by measuring retention of signal after heat incubation in a phage ELISA format (McCafferty et al., 1990; Jespers et al., 2004). Wells of a Nunc Maxisorp Immuno-plate were coated overnight with protein A at a concentration of about 5 μg/ml in phosphate-buffered saline (PBS). The plate was washed once with PBS and blocked with about 4% (w/v) milk powder diluted in PBS (MPBS). Single colonies were picked from agar plates and grown overnight in 2×TY medium (containing about 16 g/L tryptone; about 10 g/L yeast extract; about 5 g/L NaCl, pH 7.0) supplemented with about 15 μg/ml tetracycline shaking at about 30° C. Cells were removed by centrifugation and phages were biotinylated directly in the culture supernatant by adding biotin-PEO₄-N-hydroxysuccinimide (Pierce; about 50 μM final concentration). For heat selection, supernatant was first incubated at about 80° C. for about 10 min and then at about 4° C. for about 10 min. Supernatant was added to the blocked ELISA wells. After three washes with PBS, bound phage particles were detected using an Extravidin-HRP conjugate (Sigma) and 3,3′,5,5′-tetramethylbenzidine (TMB) substrate. Absorbance was calculated by subtracting measurements at 450 and 650 nm.
Antigen-specific VH domains were selected from the Garvan-2 library by phage display against recombinant protein antigen. After selection, the domains were evaluated for aggregation-resistance using the “Heat/Cool” assay described in Example 1.2, and binding to either or protein A superantigen and or recombinant antigen.

[2] = molecular target: T1, protein A; test: Heat/Cool phage ELISA: phage-displayed VH, 80 C 10 min then 4 C 10 min, captured on coated protein A; signal as % of untreated sample
Description: as §1, with “Cells were removed by centrifugation and phages were biotinylated directly in the culture supernatant by adding biotin-PEO₄-N-hydroxysuccinimide (Pierce; about 50 μM final concentration). For heat selection, supernatant was first incubated at about 80° C. for about 10 min and then at about 4° C. for about 10 min. Supernatant was added to the blocked ELISA wells.” left out
To identify additional residues in CDR1 that confer aggregation-resistance on VH, surface-exposed residues of DP47 between positions 26 to 35 (numbering according to the Kabat numbering system) were substituted for aspartic acid (D) or glutamic acid (E). […] Correctly folded VH were captured by protein A ELISA and the absorbance signal of the treated sample was calculated as a percentage of the untreated sample.

[3] = molecular target: T1, protein A; test: as above; remark: listed apart in the source
Description: as §1, with “nm. […]” for “nm.”

[4] = molecular target: T1, protein A; test: as above; remark: listed apart in the source
Description: as §1, with “For heat selection, supernatant was first incubated at about 80° C. for about 10 min and then at about 4° C. for about 10 min. Supernatant was added to the blocked ELISA wells.” left out
VH domains were produced comprising negatively charged amino acids at positions 28 and/or 35 in CDR1 of DP47 and at least one other position, as set out in Table 7. Aggregation-resistance of the VH domains was assessed using the “Heat/Cool” assay as described in Example 1.2.

[5] = molecular target: T2, human tumor necrosis factor α (human, UniProt P01375 77-233); test: SPR (Biacore), biotinylated hTNF on streptavidin chip, purified VH injected from 4 µM down
T2 construct: also called hTNF; human TNF
Description: The affinities of VH clones G07 (anti-hTNF; SEQ ID NO: 5) and G11 (anti-mIL-21; SEQ ID NO: 6) were measured using surface plasmon resonance (using a Biacore machine; GE Healthcare). For this purpose, biotinylated antigen diluted in PBS was injected over a streptavidin (SA) sensor chip (Biacore AB). Serial dilutions of purified VH (with concentrations ranging from about 0.125 to 4 μM) were injected at a flowrate of about 20 μl/min over the flow cell containing the corresponding target antigen. Equilibrium dissociation constants were calculated using the BIAevaluation 4.1 software package (Biacore AB).
Two clones selected for their binding to human tumour necrosis factor (hTNF) or mouse interleukin 21 (mIL-21) were isolated from the Garvan-I libraries, as detailed above (see Materials and Methods section). […] Biacore affinity measurements of anti-human TNF clone G07 (SEQ ID NO: 5) and anti-mouse IL-21 clone G11 (SEQ ID NO: 6) were performed. Serial dilutions of each purified protein, starting at 4 μM, were run on a streptavidin (SA) chip coated with biotinylated hTNF and mIL-21, respectively.

[6] = molecular target: T3, Hen-Egg-Lysozyme (hen, UniProt P00698 19-147); test: SPR (Biacore 2000), biotinylated antigen on streptavidin chip, purified VH
T3 construct: Biotinylated for Biacore; also called HEL
Description: (§2) The affinities of VH clones were measured using surface plasmon resonance (using a Biacore2000 instrument; GE Healthcare). For this purpose, biotinylated antigen diluted in PBS was injected over a streptavidin (SA) sensor chip (Biacore AB). Serial dilutions of purified VH were injected over the flow cell containing the corresponding target antigen. Equilibrium dissociation constants were calculated using the BIAevaluation 4.1 software package (Biacore AB).
(§3) The antigen-specific VH domains were expressed and purified. Affinity measurements were performed by surface plasmon resonance on a Biacore 2000 instrument.

[7] = molecular target: T1, protein A; test: Heat/Cool phage ELISA: phage-displayed scFv, 80 C 10 min then 4 C 10 min, captured on coated protein A; signal as % of untreated sample
Description: as §1, with “Cells were removed by centrifugation and phages were biotinylated directly in the culture supernatant by adding biotin-PEO₄-N-hydroxysuccinimide (Pierce; about 50 μM final concentration). For heat selection, supernatant was first incubated at about 80° C. for about 10 min and then at about 4° C. for about 10 min. Supernatant was added to the blocked ELISA wells.” left out
The DP47-CDR1 mutants described above were paired with a common single variable light chain (VL; SEQ ID NO: 3) via a linker (SEQ ID NO: 4) in a scFv format (see the Materials and Methods section for full experimental details). […] Correctly folded scFv were captured by protein A ELISA and the absorbance signal of the treated sample was calculated as a percentage of the untreated sample.

[8] = molecular target: T4, human prolactin receptor (human, UniProt P16471 25-234); test: SPR (Biacore 2000), biotinylated antigen on streptavidin chip, purified VH
T4 construct: also called hPRLR; PRLR (Prolactin Receptor)
T4 sequence (looked up): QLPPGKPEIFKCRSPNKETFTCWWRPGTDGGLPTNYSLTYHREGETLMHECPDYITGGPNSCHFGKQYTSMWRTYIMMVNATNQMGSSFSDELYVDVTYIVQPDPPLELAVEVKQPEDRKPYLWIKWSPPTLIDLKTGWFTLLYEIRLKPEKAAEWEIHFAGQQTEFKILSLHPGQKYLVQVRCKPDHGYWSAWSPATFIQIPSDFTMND
Description: as §2, §3

T3 sequence (P00698 19-147): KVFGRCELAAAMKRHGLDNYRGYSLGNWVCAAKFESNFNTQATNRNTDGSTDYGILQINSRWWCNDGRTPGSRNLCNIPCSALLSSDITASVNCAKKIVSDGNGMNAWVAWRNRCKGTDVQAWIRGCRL
T2 sequence (P01375 77-233 limits assumed): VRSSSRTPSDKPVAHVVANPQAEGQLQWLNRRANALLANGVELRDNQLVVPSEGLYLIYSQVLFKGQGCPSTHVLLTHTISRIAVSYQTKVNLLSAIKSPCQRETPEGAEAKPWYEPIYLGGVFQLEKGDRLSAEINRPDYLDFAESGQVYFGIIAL

B1: HEL4 VH (other)
VH: QVQLLESGGGLVQPGGSLRLSCAASGFRISDEDMGWVRQAPGKGLEWVSSIYGPSGSTYYADSVKGRFTISRDNSKNTLYLQMNSLRAEDTAVYYCASALEPLSEPLGFWGQGTLVTVSS
Q: B1 was tested. Which “Retained binding (%) after heating” value [1] did it give?
A: The value was 88.1%.

Q: And the “Retained binding to protein A (%)” value [2]?
A: The value was 80.2%.

Q: What about the “Retained binding to protein A (%)” value [3] of the same binder?
A: The value was 80.8%.

Q: And the “Retained binding to protein A (%)” value [4]?
A: The value was 87.7%.

B2: VHhTNF_G07 (anti-hTNF VH) (other, not shown: small tags and cut ends)
VH: QVQLLESGGGLVQPGGSLRLSCAASGFRISDEDMGWVRQAPGKGLEWVSSIYGPSGSTYYADSVKGRFTISRDNSKNTLYLQMNSLRAEDTAVYYCASKEDYDTYNWGFWGQGTLVTVSS
notes: also called clone G07; anti-human TNF clone G07
Q: With B2 as the binder, how does the Kd [5] read?
A: The Kd was 1860 nM.

B3: DP47 VH G52aD (other, name in Kabat numbering)
VH: QVQLLESGGGLVQPGGSLRLSCAASGFTFSSYAMSWVRQAPGKGLEWVSAISDSGGSTYYADSVKGRFTISRDNSKNTLYLQMNSLRAEDTAVYYCAKSYGAFDYWGQGTLVTVSS
Q: How did the “Retained binding to protein A (%)” value [3] turn out when B3 was run?
A: Its value is 2.1%.

B4: VHHEL_H04 (anti-HEL VH) (other)
VH: EVQLLESGGGLVQPGGSLRLSCAASGFRFDAEDMGWVRQAPGKGLEWVSSIYGPSGSTYYADSVKGRFTISRDNSKNTLYLQMNSLRAEDTAVYYCAKYTSPPQNHGFDYWGQGTLVTVSS
notes: Human VH single domain antibody from the Garvan-2 library
Q: Which results are given for B4?
A: Kd [6]: 28 nM; Retained binding (%) after heating [1]: 87.8%

B5: scFv HEL4 VH - linker - common VL (scFv)
scFv: QVQLLESGGGLVQPGGSLRLSCAASGFRISDEDMGWVRQAPGKGLEWVSSIYGPSGSTYYADSVKGRFTISRDNSKNTLYLQMNSLRAEDTAVYYCASALEPLSEPLGFWGQGTLVTVSSGGGGSGGGGSGGGGSTDIQMTQSPSSLSASVGDRVTITCRASQSISSYLNWYQQKPGKAPKLLIYAYSDLQSGVPSGFSGSGSGTDFTLTISSLQPEDFATYYCQQLMTHPTTFGQGTKVEIKR
notes: also called HEL4 (scFv)
Q: B5 was tested. Which “Retained binding to protein A” value [7] did it give?
A: The value was 56%.

B6: scFv DP47 VH SYA31-33DED - linker - common VL (scFv)
scFv: QVQLLESGGGLVQPGGSLRLSCAASGFTFSDEDMSWVRQAPGKGLEWVSAISGSGGSTYYADSVKGRFTISRDNSKNTLYLQMNSLRAEDTAVYYCAKSYGAFDYWGQGTLVTVSSGGGGSGGGGSGGGGSTDIQMTQSPSSLSASVGDRVTITCRASQSISSYLNWYQQKPGKAPKLLIYAYSDLQSGVPSGFSGSGSGTDFTLTISSLQPEDFATYYCQQLMTHPTTFGQGTKVEIKR
notes: also called SYA31-33DED (scFv)
Q: For B6, which “Retained binding to protein A” value [7] is on record?
A: Its value is 45%.

B7: VHPRLR_C02 (anti-hPRLR VH) (other)
VH: EVQLLESGGGLVQPGGSLRLSCAASGFRFADEDMGWVRQAPGKGLEWVSDISGDGYSTYYADSVKGRFTISRDNSKNTLYLQMNSLRAEDTAVYYCAKLPPVYLGGAFDYWGQGTLVTVSS
notes: as for B4
Q: What does the source list for B7?
A: Kd [8]: < 100 nM; Retained binding (%) after heating [1]: 98.8%

B8: VHHEL_G08 (anti-HEL VH) (other)
VH: EVQLLESGGGLVQPGGSLRLSCAASGFRISDEDMGWVRQAPGKGLEWVSYIDNNGYSTYYADSVKGRFTISRDNSKNTLYLQMNSLRAEDTAVYYCAKKQYGYQNGGFDYWGQGTLVTVSS
Q: Which Kd [6] does the source give for B8 here?
A: Its Kd is 65 nM.

Q: What about the “Retained binding (%) after heating” value [1] of the same binder?
A: Its value is 83.8%.
